{
  "source": "paper doi:10.1101/660928",
  "test_system": "Rv1626 D65E (phosphomimic, Rv1626~P) (Mycobacterium tuberculosis)",
  "assay": "EMSA",
  "data": [
    {"substance": "5' UTR of Mtb Rv1936 (category 1 ANTAR RNA)", "values": [
      {"measurement": "Kd", "result": 15, "unit": "µM"}
    ]}
  ]
}
